Test results as given in article PMC4490564, “Molecular snapshots of the Pex1/6 AAA+ complex in action” (Nature Communications, 2015).
Each block holds one binder with its values, some of them ahead of it.

Tests used:
Assay in all cases: negative stain EM (single-particle analysis, 3D reconstruction); purified complexes at 40-50 ug/ml, incubated with ATPγS (2.5 mM), ATP (5 mM), ADP (5 mM) or ADP-AlFx, adsorbed on carbon grids, stained with 2% uranyl acetate; threefold symmetry imposed
Conditions in all cases: both partners purified
[1] = molecular target: T1, Pex6 (wild type, overexpressed in yeast) (yeast, UniProt P33760 1-1030)
T1 construct: Pex6, yeast; full-length PEX6 amplified from genomic DNA, in pRS425GAL or pYES2; also called Pex6 of Δ188Pex1/Pex6 and of Pex1WB/6; source: S. cerevisiae, overexpressed (2% galactose), purified (IgG Sepharose, TEV cleavage, glycerol gradient); not shown: protein A (ProA), C-terminal, cleaved
T1 sequence (looked up): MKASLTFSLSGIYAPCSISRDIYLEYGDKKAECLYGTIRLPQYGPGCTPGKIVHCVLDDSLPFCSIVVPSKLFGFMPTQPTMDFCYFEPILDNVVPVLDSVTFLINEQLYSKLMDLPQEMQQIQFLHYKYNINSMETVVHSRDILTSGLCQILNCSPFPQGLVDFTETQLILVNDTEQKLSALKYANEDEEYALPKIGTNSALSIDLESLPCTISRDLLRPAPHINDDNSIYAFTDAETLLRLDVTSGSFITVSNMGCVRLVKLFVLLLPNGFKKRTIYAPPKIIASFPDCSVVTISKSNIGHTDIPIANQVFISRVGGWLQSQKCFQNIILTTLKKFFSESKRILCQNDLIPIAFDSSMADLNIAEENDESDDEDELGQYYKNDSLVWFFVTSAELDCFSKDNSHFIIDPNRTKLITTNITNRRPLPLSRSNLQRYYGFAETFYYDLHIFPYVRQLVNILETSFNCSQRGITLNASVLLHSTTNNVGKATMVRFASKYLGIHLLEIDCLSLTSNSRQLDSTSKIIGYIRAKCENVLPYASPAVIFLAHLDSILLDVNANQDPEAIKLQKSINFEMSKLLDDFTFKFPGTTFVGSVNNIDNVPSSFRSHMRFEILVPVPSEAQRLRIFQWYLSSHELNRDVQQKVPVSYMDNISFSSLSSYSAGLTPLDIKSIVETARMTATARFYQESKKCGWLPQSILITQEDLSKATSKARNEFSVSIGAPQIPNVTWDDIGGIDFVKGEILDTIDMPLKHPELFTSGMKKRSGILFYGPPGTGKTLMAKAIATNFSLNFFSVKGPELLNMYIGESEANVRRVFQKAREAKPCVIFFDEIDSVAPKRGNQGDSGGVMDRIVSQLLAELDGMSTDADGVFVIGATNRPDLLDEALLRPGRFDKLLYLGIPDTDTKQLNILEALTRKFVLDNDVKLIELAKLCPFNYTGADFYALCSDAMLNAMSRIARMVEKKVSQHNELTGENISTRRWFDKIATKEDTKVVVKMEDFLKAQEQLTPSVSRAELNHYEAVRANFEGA

[2] = molecular target: T2, Pex1 (wild type, from HisPex1GST after thrombin cleavage) (yeast, UniProt P24004 1-1043)
T2 construct: Pex1, yeast, type II AAA+ ATPase; PEX1 amplified from genomic DNA; 1,043 amino acids (from the range printed for Δ188PEX1); also called Pex1 of Pex1/6; source: E. coli Tuner (DE3), purified together with HisPex6 (Ni-NTA agarose, glutathione agarose, eluted by thrombin cleavage); not shown: GST, C-terminal, cleaved
T2 sequence (looked up): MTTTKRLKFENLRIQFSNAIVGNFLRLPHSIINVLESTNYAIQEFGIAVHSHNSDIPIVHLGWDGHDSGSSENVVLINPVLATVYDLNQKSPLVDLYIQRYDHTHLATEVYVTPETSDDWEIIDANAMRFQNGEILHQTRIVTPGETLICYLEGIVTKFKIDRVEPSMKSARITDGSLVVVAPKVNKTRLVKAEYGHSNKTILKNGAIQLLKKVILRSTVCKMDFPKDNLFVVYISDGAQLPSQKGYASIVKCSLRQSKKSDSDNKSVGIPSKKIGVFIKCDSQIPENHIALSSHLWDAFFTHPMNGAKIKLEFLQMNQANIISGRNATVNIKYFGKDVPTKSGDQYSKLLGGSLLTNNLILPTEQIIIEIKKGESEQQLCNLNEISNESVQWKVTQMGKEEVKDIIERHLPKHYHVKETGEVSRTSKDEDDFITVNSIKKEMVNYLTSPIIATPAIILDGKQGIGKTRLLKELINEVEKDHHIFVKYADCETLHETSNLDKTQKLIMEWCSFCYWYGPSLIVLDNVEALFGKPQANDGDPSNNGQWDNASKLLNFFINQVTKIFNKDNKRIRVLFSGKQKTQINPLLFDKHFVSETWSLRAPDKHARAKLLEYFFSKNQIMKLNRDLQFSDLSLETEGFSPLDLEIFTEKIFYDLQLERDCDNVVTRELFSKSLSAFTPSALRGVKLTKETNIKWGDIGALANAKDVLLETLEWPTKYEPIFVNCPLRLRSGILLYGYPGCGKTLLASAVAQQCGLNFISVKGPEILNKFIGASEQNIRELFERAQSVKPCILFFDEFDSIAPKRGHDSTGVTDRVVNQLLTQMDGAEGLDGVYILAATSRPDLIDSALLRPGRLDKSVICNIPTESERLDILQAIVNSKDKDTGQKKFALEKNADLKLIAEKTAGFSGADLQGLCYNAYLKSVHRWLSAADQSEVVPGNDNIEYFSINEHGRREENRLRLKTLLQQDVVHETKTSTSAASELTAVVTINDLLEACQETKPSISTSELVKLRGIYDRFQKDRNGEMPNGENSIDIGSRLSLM

[3] = molecular target: T3, Pex1GST (Pex1 with the C-terminal GST kept) (yeast, UniProt P24004 1-1043)
T3 construct: Pex1, yeast; PEX1 cloned into pRSFDuet-cGST (GST with a thrombin cleavage site); also called HisPex1GST; source: E. coli Tuner (DE3), purified; not shown: GST, C-terminal, kept
T3 sequence (looked up): T2 sequence (looked up)

- binding result [1]: binds
B1: Δ188Pex1 (N-terminal truncation mutant of Pex1) (domain or fragment, yeast, UniProt P24004 189-1043, looked up)
chain: RLVKAEYGHSNKTILKNGAIQLLKKVILRSTVCKMDFPKDNLFVVYISDGAQLPSQKGYASIVKCSLRQSKKSDSDNKSVGIPSKKIGVFIKCDSQIPENHIALSSHLWDAFFTHPMNGAKIKLEFLQMNQANIISGRNATVNIKYFGKDVPTKSGDQYSKLLGGSLLTNNLILPTEQIIIEIKKGESEQQLCNLNEISNESVQWKVTQMGKEEVKDIIERHLPKHYHVKETGEVSRTSKDEDDFITVNSIKKEMVNYLTSPIIATPAIILDGKQGIGKTRLLKELINEVEKDHHIFVKYADCETLHETSNLDKTQKLIMEWCSFCYWYGPSLIVLDNVEALFGKPQANDGDPSNNGQWDNASKLLNFFINQVTKIFNKDNKRIRVLFSGKQKTQINPLLFDKHFVSETWSLRAPDKHARAKLLEYFFSKNQIMKLNRDLQFSDLSLETEGFSPLDLEIFTEKIFYDLQLERDCDNVVTRELFSKSLSAFTPSALRGVKLTKETNIKWGDIGALANAKDVLLETLEWPTKYEPIFVNCPLRLRSGILLYGYPGCGKTLLASAVAQQCGLNFISVKGPEILNKFIGASEQNIRELFERAQSVKPCILFFDEFDSIAPKRGHDSTGVTDRVVNQLLTQMDGAEGLDGVYILAATSRPDLIDSALLRPGRLDKSVICNIPTESERLDILQAIVNSKDKDTGQKKFALEKNADLKLIAEKTAGFSGADLQGLCYNAYLKSVHRWLSAADQSEVVPGNDNIEYFSINEHGRREENRLRLKTLLQQDVVHETKTSTSAASELTAVVTINDLLEACQETKPSISTSELVKLRGIYDRFQKDRNGEMPNGENSIDIGSRLSLM
notes: Pex1, yeast, gene segment corresponding to amino acids 189-1,043; source: S. cerevisiae, overexpressed (2% galactose), purified (IgG Sepharose, TEV cleavage, glycerol gradient); not shown: protein A (ProA), C-terminal, cleaved

- binding result [2]: binds
- binding result [3]: binds
B2: Pex6 (wild type, HisPex6) (natural protein, yeast, UniProt P33760 1-1030, looked up)
chain: T1 sequence (looked up)
notes: Pex6, yeast, type II AAA+ ATPase; PEX6 amplified from genomic DNA; also called Pex6 of Pex1/6
